What all share (assay): AlphaScreen or HTRF
Background: Alpha assays give light when donor and acceptor beads are brought close together.

The target in test [1] is His6-tagged GFP–SRY-HMG R76P (SRY residues 55–141) (human) (UniProt Q05066).
Test [2] deals with His6-tagged GFP–SRY-HMG F67V (SRY residues 55–141) (human) (UniProt Q05066).
The target of test [3] is His6-tagged GFP–SRY-HMG R76P (SRY residues 55–141) (human) (UniProt Q05066). The source holds these as a separate data set.
The target of test [4] is His6-tagged GFP–SRY-HMG M64T (SRY residues 55–141) (human) (UniProt Q05066).

Where two headings read alike, the source gives them in different places.

With “biotin-labelled calmodulin (CaM) (from UniProt P0DP23 1-149) (natural protein)”, the Kd in test [1] was 2.05 nM; in test [2] it was 1.25 nM; in test [3] it was 1.18 nM; in test [4], 2.05 nM.

What is called Kd is a measure of binding affinity in units of concentration. Low readings indicate tighter binding, high ones weaker binding.

The values are drawn from publication PMC2911679.
